Measurements taken from patent US12383631 (BRIGHT PEAK THERAPEUTICS, dated 2025).

T1: IL-18 receptor (IL-18Rα/IL-18Rβ) on cells (HEK-Blue IL18R reporter cells, NK-92, KG-1) (human, UniProt Q13478 19-541; O95256 20-599)
T1 sequence (looked up) 1: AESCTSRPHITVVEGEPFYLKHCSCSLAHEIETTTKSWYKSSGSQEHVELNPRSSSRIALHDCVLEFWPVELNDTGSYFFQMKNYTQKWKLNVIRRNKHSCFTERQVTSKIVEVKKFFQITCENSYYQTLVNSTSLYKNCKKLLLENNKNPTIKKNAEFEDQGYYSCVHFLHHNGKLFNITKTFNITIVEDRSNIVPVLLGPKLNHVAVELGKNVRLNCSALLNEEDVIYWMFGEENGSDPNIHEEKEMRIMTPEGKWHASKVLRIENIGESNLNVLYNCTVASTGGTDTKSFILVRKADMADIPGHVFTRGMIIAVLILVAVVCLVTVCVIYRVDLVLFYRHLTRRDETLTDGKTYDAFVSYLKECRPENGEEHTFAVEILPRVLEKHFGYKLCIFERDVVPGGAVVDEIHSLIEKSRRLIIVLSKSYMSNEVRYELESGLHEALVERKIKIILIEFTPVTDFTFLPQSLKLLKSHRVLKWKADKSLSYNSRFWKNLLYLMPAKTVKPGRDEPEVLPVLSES
T1 sequence (looked up) 2: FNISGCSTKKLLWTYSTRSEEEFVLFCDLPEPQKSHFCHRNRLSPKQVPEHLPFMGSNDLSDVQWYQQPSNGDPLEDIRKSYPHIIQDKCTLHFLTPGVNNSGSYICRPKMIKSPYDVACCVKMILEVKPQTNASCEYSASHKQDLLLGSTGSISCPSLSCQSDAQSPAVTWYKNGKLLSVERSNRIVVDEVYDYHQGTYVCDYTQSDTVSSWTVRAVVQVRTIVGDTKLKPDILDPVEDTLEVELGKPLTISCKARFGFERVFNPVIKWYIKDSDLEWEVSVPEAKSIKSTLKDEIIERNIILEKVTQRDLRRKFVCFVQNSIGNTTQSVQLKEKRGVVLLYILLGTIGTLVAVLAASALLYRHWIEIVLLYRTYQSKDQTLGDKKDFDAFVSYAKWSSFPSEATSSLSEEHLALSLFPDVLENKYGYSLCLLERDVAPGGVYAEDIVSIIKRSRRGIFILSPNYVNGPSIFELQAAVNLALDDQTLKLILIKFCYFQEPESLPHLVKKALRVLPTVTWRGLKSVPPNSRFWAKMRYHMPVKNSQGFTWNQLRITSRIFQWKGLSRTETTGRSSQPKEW

T2: human IL-18BP-His (human, UniProt O95998 31-194, limits assumed)
T2 construct: also called His-tagged human IL-18BP; not shown: His tag
T2 sequence (looked up): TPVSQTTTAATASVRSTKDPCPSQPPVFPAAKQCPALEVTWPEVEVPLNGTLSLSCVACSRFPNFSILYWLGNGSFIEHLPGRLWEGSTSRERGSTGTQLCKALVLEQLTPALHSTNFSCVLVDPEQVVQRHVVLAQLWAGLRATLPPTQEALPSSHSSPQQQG


Columns and labels:
[1] = target: T1, IL-18 receptor (IL-18Rα/IL-18Rβ) on …; assay: cell-based or functional assay
human IL-18BP-His = target: T2, human IL-18BP-His; assay: AlphaLISA of free IL-18BP
Method: The plate is incubated further for 1 hr at room temperature. Under subdued light, 12.5 µL of 2× streptavidin (SA) donor beads are pipetted into each well, and the wells are incubated with shaking for an additional 30 min at room temperature. The AlphaLisa signal is then measured on an Enspire plate reader with 680 and 615 nm as excitation and emission wavelengths, respectively. The dissociation constant (K_D) is calculated based on a variable slope, four parameter analysis using GraphPad PRISM software.

[2] = target: T1, IL-18 receptor (IL-18Rα/IL-18Rβ) on …; assay: cell-based or functional assay; remark: listed apart in the source

Binder | EC50, IFNγ stimulation, NK92 cells [1] | Kd (human IL-18BP-His) | EC50, HEK-Blue IL18R reporter cells [2]
IL-18 polypeptide C147 (ligand, also called V11I, C38A, K53A, D54A, C76A, C127A) YFGKLESKLSIIRNLNDQVLFIDQGNRPLFEDMTDSDARDNAPRTIFIISMYAASQPRGMAVTISVKCEKISTLSAENKIISFKEMNPPDNIKDTKSDIIFFQRSVPGHDNKMQFESSSYEGYFLAAEKERDLFKLILKKEDELGDRSIMFTVQNED | 0.079 nM | 25.8 nM | 0.001 nM
IL-18 polypeptide C151 (ligand, also called V11I, D35A, C38A, K53A, C76A, C127A) YFGKLESKLSIIRNLNDQVLFIDQGNRPLFEDMTASDARDNAPRTIFIISMYADSQPRGMAVTISVKCEKISTLSAENKIISFKEMNPPDNIKDTKSDIIFFQRSVPGHDNKMQFESSSYEGYFLAAEKERDLFKLILKKEDELGDRSIMFTVQNED | 0.061 nM | 2.88 nM | 0.0131 nM
IL-18 polypeptide C157 (ligand, also called V11I, C38A, K53A, C76A, C127A, D132A) YFGKLESKLSIIRNLNDQVLFIDQGNRPLFEDMTDSDARDNAPRTIFIISMYADSQPRGMAVTISVKCEKISTLSAENKIISFKEMNPPDNIKDTKSDIIFFQRSVPGHDNKMQFESSSYEGYFLAAEKERALFKLILKKEDELGDRSIMFTVQNED | 0.056 nM | 13.7 nM | 0.00195 nM
IL-18 polypeptide C155 (ligand, also called V11I, C38A, D40A, K53A, C76A, C127A) YFGKLESKLSIIRNLNDQVLFIDQGNRPLFEDMTDSDARANAPRTIFIISMYADSQPRGMAVTISVKCEKISTLSAENKIISFKEMNPPDNIKDTKSDIIFFQRSVPGHDNKMQFESSSYEGYFLAAEKERDLFKLILKKEDELGDRSIMFTVQNED | 0.067 nM | 0.74 nM | 0.00052 nM
IL-18 polypeptide C159 (ligand, also called V11I, C38A, K53A, C76A, H109A, C127A) YFGKLESKLSIIRNLNDQVLFIDQGNRPLFEDMTDSDARDNAPRTIFIISMYADSQPRGMAVTISVKCEKISTLSAENKIISFKEMNPPDNIKDTKSDIIFFQRSVPGADNKMQFESSSYEGYFLAAEKERDLFKLILKKEDELGDRSIMFTVQNED | 0.123 nM | 0.55 nM | 0.0195 nM
IL-18 polypeptide C161 (ligand, also called K8R, V11I, C38A, C76A, Q103E, C127A) YFGKLESRLSIIRNLNDQVLFIDQGNRPLFEDMTDSDARDNAPRTIFIISMYKDSQPRGMAVTISVKCEKISTLSAENKIISFKEMNPPDNIKDTKSDIIFFERSVPGHDNKMQFESSSYEGYFLAAEKERDLFKLILKKEDELGDRSIMFTVQNED | 0.057 nM | 0.06 nM | 0.00201 nM
IL-18 polypeptide C149 (ligand, also called V11I, E31A, C38A, K53A, C76A, C127A) YFGKLESKLSIIRNLNDQVLFIDQGNRPLFADMTDSDARDNAPRTIFIISMYADSQPRGMAVTISVKCEKISTLSAENKIISFKEMNPPDNIKDTKSDIIFFQRSVPGHDNKMQFESSSYEGYFLAAEKERDLFKLILKKEDELGDRSIMFTVQNED | 0.187 nM | 0.64 nM | 0.0066 nM
IL-18 polypeptide C162 (ligand, also called K8E, V11I, C38A, C76A, Q103R, C127A) YFGKLESELSIIRNLNDQVLFIDQGNRPLFEDMTDSDARDNAPRTIFIISMYKDSQPRGMAVTISVKCEKISTLSAENKIISFKEMNPPDNIKDTKSDIIFFRRSVPGHDNKMQFESSSYEGYFLAAEKERDLFKLILKKEDELGDRSIMFTVQNED | 0.061 nM | 0.85 nM | 0.0023 nM
IL-18 polypeptide C154 (ligand, also called V11I, E31A, D37A, C38A, K53A, C76A, C127A) YFGKLESKLSIIRNLNDQVLFIDQGNRPLFADMTDSAARDNAPRTIFIISMYADSQPRGMAVTISVKCEKISTLSAENKIISFKEMNPPDNIKDTKSDIIFFQRSVPGHDNKMQFESSSYEGYFLAAEKERDLFKLILKKEDELGDRSIMFTVQNED | 0.062 nM | 2.12 nM | 0.0119 nM
IL-18 polypeptide C160 (ligand, also called V11I, C38A, K53A, C76A, D110A, C127A) YFGKLESKLSIIRNLNDQVLFIDQGNRPLFEDMTDSDARDNAPRTIFIISMYADSQPRGMAVTISVKCEKISTLSAENKIISFKEMNPPDNIKDTKSDIIFFQRSVPGHANKMQFESSSYEGYFLAAEKERDLFKLILKKEDELGDRSIMFTVQNED | 0.028 nM | 0.71 nM | 0.00202 nM
IL-18 polypeptide C153 (ligand, also called V11I, D37A, C38A, K53A, C76A, C127A) YFGKLESKLSIIRNLNDQVLFIDQGNRPLFEDMTDSAARDNAPRTIFIISMYADSQPRGMAVTISVKCEKISTLSAENKIISFKEMNPPDNIKDTKSDIIFFQRSVPGHDNKMQFESSSYEGYFLAAEKERDLFKLILKKEDELGDRSIMFTVQNED | 0.175 nM | 4.55 nM | 0.0141 nM
IL-18 polypeptide C148 (ligand, also called F2A, V11I, C38A, K53A, C76A, C127A) YAGKLESKLSIIRNLNDQVLFIDQGNRPLFEDMTDSDARDNAPRTIFIISMYADSQPRGMAVTISVKCEKISTLSAENKIISFKEMNPPDNIKDTKSDIIFFQRSVPGHDNKMQFESSSYEGYFLAAEKERDLFKLILKKEDELGDRSIMFTVQNED | 0.256 nM | 57.2 nM | 0.00728 nM
IL-18 polypeptide C150 (ligand, also called V11I, T34A, C38A, K53A, C76A, C127A) YFGKLESKLSIIRNLNDQVLFIDQGNRPLFEDMADSDARDNAPRTIFIISMYADSQPRGMAVTISVKCEKISTLSAENKIISFKEMNPPDNIKDTKSDIIFFQRSVPGHDNKMQFESSSYEGYFLAAEKERDLFKLILKKEDELGDRSIMFTVQNED | 0.015 nM | 1.24 nM | 0.0007 nM
IL-18 polypeptide C156 (ligand, also called V11I, C38A, N41A, K53A, C76A, C127A) YFGKLESKLSIIRNLNDQVLFIDQGNRPLFEDMTDSDARDAAPRTIFIISMYADSQPRGMAVTISVKCEKISTLSAENKIISFKEMNPPDNIKDTKSDIIFFQRSVPGHDNKMQFESSSYEGYFLAAEKERDLFKLILKKEDELGDRSIMFTVQNED | 0.558 nM | 18.5 nM | 0.0117 nM
IL-18 polypeptide C158 (ligand, also called V11I, C38A, K53A, C76A, G108A, C127A) YFGKLESKLSIIRNLNDQVLFIDQGNRPLFEDMTDSDARDNAPRTIFIISMYADSQPRGMAVTISVKCEKISTLSAENKIISFKEMNPPDNIKDTKSDIIFFQRSVPAHDNKMQFESSSYEGYFLAAEKERDLFKLILKKEDELGDRSIMFTVQNED | 0.073 nM | 1.24 nM | 0.0156 nM
IL-18 polypeptide C152 (ligand, also called V11I, S36A, C38A, K53A, C76A, C127A) YFGKLESKLSIIRNLNDQVLFIDQGNRPLFEDMTDADARDNAPRTIFIISMYADSQPRGMAVTISVKCEKISTLSAENKIISFKEMNPPDNIKDTKSDIIFFQRSVPGHDNKMQFESSSYEGYFLAAEKERDLFKLILKKEDELGDRSIMFTVQNED | 0.033 nM | 1.12 nM | 0.00025 nM
